Assay results from US20240288416A1 (RIJKSUNIVERSITEIT GRONINGEN, published 2024).

Target: T1, artificial PA28-nanopore
T1 construct: also called PA-nanopore; PA nanopore
Assay: single-channel electrical recording in a planar lipid bilayer, 1 M NaCl

B1: 20S proteasome from Thermoplasma acidophilum (enzyme)
chain 1: MQQGQMAYDRAITVFSPDGRLFQVEYAREAVKKGSTALGMKFANGVLLISDKKVRSRLIEQNSIEKIQLIDDYVAAVTSGLVADARVLVDFARISAQQEKVTYGSLVNIENLVKRVADQMQQYTQYGGVRPYGVSLIFAGIDQIGPRLFDCDPAGTINEYKATAIGSGKDAVVSFLEREYKENLPEKEAVTLGIKALKSSLEEGEELKAPEIASITVGNKYRIYDQEEVKKFL
chain 2: TTTVGITLKDAVIMATERRVTMENFIMHKNGKKLFQIDTYTGMTIAGLVGDAQVLVRYMKAELELYRLQRRVNMPIEAVATLLSNMLNQVKYMPYMVQLLVGGIDTAPHVFSIDAAGGSVEDIYASTGSGSPFVYGVLESQYSEKMTVDEGVDLVIRAISAAKQRDSASGGMIDVAVITRKDGYVQLPTDQIESRIRKLGLIL
notes: also called the proteasome; T. acidophilum proteasome
- binding result: no binding
